Laboratory results as given in the nanobody polyreactivity screen of Harvey et al. (2022).

Test: yeast display, Sf9 membrane polyspecificity reagent, FACS + sequencing; frameworks hold sequencing errors
In short: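 Nanobodies from a synthetic yeast display library (Saccharomyces cerevisiae BJ5465), induced 36–48 hours with galactose, were stained 1 hour at 4 °C with 10% biotinylated, detergent-solubilized Sf9 membrane reagent, enriched on streptavidin microbeads, then FACS-sorted. Anti-HA (expression) and streptavidin (reagent binding) fluorescence set low and high (top ~1%) gates. Polyreactivity labels come from the gate of origin. Genes were colony-PCR amplified, MiSeq 2 × 250 sequenced and filtered by CDR length.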

Sequence	polyreactivity (PSR sort gate)
QVQLVESGGGLVQAGGSLRLSCAASGFTFGYYAMGWYRQAPGKERELVGAINWSGGRTYYADSVKGRFTISRDNAKNTVYLQMNSLKPEDTAVYYCAASAHYDGDYWGQGTQVTVSS	high polyreactivity
QVQLVESGGGLVQAGGSLRLSCAASGFNFSSYAMGWSRQAPGKERELVAAISGSGGTTYYADSVKGRFTISRDNAKNTVYLQMNSQKPEDTAVYYCATRLGLVITKYGYDYWGQGTQVTVSS	high polyreactivity
QVQLVESGGGLVQAGGSLRLTCAASGSIFDFYAMGRYRQAPGQERELVAAISGSGGSTYYADSVKGRFTISRDNGKNTVYFQMDSLKPEDTAVYYCSYYYWGQGTQVNVSS	low polyreactivity
QVQLVESGGGLVQAGGSHRLSCAASGSIFSYYAMGWYRPAPGKERELVAAISWGDDSTYYAASVKGRFTISRDNEKNTVYLHMNSLKPEDTAVYYCAADRVGWYRTFDYWGQGSQVTVSS	low polyreactivity
QVQLVESGGGLVQAGGSLRLSCAASGFIYYAMGWYRQAPGKERELVAAISRGGTTYYADSVKGRFTISRDNAKNTVYLQMNSLKPEVTAVSYCNAVGYRAVGYKTGYARYGYWGQGTQVTVSS	high polyreactivity
QVQLVESGGGLVQAGGSLRLSCAASGSTFYTNTMGWYRQAPGKERELVADINGSGGSTYYADSVKGRFTISRDNAKNTVYLQMNSLKPEDTAVYYCAAGSWQVAIRYDYWGQGTQVTVSS	low polyreactivity
QVQLVESGGGLVQAGGSLRLSCAASGFTFEYYAMGWYRHAPGKERELVAAITSGGTTYYADSVKGRFTISRDNAKNTDYLQMNSLKPEDTAVYYCAAANRFGPYGYWGQGTQVTVSS	high polyreactivity
QVQLVESGGGLVQAGGSLRLSCAASGSIFTYTMGGYRQAPGKERELVATISRTGSTNYADSVKGRFTISRDNAKNTVYLQMNSLKPEDTAVYYCSKGAYITGAWPFYELITPYAYWGQGTQVTVSS	high polyreactivity
PVQLVESGGGLVQAGGSLRLSFAASGRTFWVYAMGWYRQAPGKERELVAAINRRGGGTYYADSVKGRFTISRDNAKNTVYLQMNSLKPEDTPVYYCAAVTRNQGSYRYYYWGQGTQVTVSS	high polyreactivity
QVQLVESGGGLVQAGGSLRLSCAASGIIFWLYTMGWYRQAPGKERELVAAITSGGSTYYADSVKGRFTISRDNAKNTVYLQMNSLKPEDTAVYDCAAVPRYRRWKYDYWGQGTQVTVSS	high polyreactivity
QVQLVESGGGLVQAGGSLRLSCAASGSTFLYYTMGWYRQAPGKERELVATISRDGSTKYADSVKGRFTISRDNAKITVYLQMNSLKPEDTAVYYCAAARDSIVYGQYDYWGQGTQVTVSS	low polyreactivity
QVQLVESGGGKVQEGGSLRISCAASGSIFITYAMGWYRQAPGKERELVAAIRDSGDRTYYADSVKGRFTISRDNAKNTVYFQMNSLKPEDTAVYYCNARCQEPLKYDYWGQGTQVIVSS	low polyreactivity
QVQLVESGGGLVQAGGSLRLSCAASGSIFFSYAMGWYRKAPGKERELVAAIDYSGGGTYYADSVKGRFTISRDNAKNTVYLQMNSLKPEDTAVYYCKSDTEVWADTFISYRALNYWGQGTQVTVSS	low polyreactivity
QVQLVESGGGLVQAGGSLRLSCAASGRTIDRNAMGWYRQPPGKERELVAAISGSGGRTYYADSVKGRFTISRDNEKNSVYLQMNSLKPEDTAVYYCAARVGSSPSKSKYDYWGQGTQVTVSS	high polyreactivity
QVQLVESGGGLVQAGGSLRLSCAASGLTFRYYTMGWYRQAPGKERELVASINIRGGSTYYADSVKGRFTISRDNAKNTVYLQMNSLKAEDTSVYYCNNRYGFSFGYWGQGTQVTVSS	high polyreactivity
QVQLVESGGGLVQAGGSLRLSCAASGRIFKVYAMGWYRQAPGKERELVATISRGGSTYYADSVKGRFTISRDNAKNTVYLQMNSLKPEDTAVYYCAKQRERYYWFGAWSYDYWGQGTQLTVSS	low polyreactivity
QVQLVESGGGLVQAGGSLRLSCAASGSIFYRNAMGWYRQAPGKERELVAAISSDGSTNYADSVKGRFTISRDNAMNTVDLQMNSLKPEDTAVYYCAAPWTQILDYWGQGTQVTVSS	low polyreactivity
QDPLEESGGGLVQAGGSLRLSCAASGFTFTDYAMGWTRQAPGKERQLVAVISRSGGSTNYADSVKGRFTISRDKAKNTVYLQMNCLKPEDTAVYYCNAGKYLYRHGFLSSGDMYYWGQGTQVTVSS	high polyreactivity
QVQLVESGGGLVQAGGSLRLSCAASGRIFRNAMGWYRQAPGKERELVAAISSGGSTNYADSVKGRFTISRDNAKNTVYLQMNSLKPEDTAVYYCAADWDWWYQEFDYWGQGTQVTVSS	high polyreactivity
QVQLVESGGGLVQAGGSLRLSCAASGIIFGKYAMGWYRQAPGKERELVAAINYSGSTYYADSVKGRFTISRDNAKNTVYLQMNSLKPEDTAVYYCAAVLGLDTRYDYWGQGTQVTVSS	high polyreactivity
QVQLVESGGGLVQAGGSLRLSCAASGFTLQVYDMGWYRQAPGKERELVADISGSGDSTNYADSVKGRFTISRDNAKNTVYLQMNSLKPEDTAVYYCAAEVRGGYYGYDYWGQGTQVTVSS	low polyreactivity
QVQLVESGGGLVQAGGSLRLSCAASGLIFYRYAMGWYRQAPGTEREMVAAITTNGARTYYADSVKGRFTISRDNAKNTVYLEMNSLKPEDTAVYYCAAYGAGKFWADHNYWGQGTQVTVSS	high polyreactivity

Sequence	polyreactivity (PSR sort gate)
QVQLVESGGGLVQAGGSLRLSSPASGLIFGAYAMGWYRQERGKERELVAAISYSGGRTYYADSVKGRFTMSRDNAKNTVYLQLNSLKPEDTAVYYCNALWYLSLSYRYDYWGQGTQVTVSS	high polyreactivity
QVQLVESGGGLVQAGGSLRVSCAASGSNFGGYAMGWYRQAPGKERELVAAISSRGIDTTYADSVKVRFTISRDNAKNTVYLQMYSLKPDDTAVYYCAEFVSDATVGPSNGLDYWGQGTQVTVSS	low polyreactivity
QVQIVESGGGLVQAGGSLRLSCAASGSTFYPNAMGWYRQAPGKERELVAAISRGTRTKYADSVKGRFTISRDNAKNTVYLQINSLKPEDTAVYYCAADTGKGLDWGQGTHVTVSS	high polyreactivity
QVQLGESGGGLVQAGGSLRLSCAASGSIFKVNVMGWYRQEPGKERELVAAISRSGGNTYYADYVKGRFTISRDNAKNTVYLKMNSLKPEDTAVYYCAKDRRYYKAYDYWGQGTQVTVSS	low polyreactivity
QVQLVESGGRLVQAGGSLRLSCAASGSNLLWNTMGWYRQAPGKERELVAGITSGGNTYYADSVKGRFTISRDNAKNTVYLKMNSLKPEDTAVYYCSYYYWGQGTQVTVSS	low polyreactivity
QVQLVESGGGLVQAGGSLRLSCAASGSIFTYNAMGWYRPAPGKERELVASITWSGGSTYYADSVKGRFTISRDNAKNTVSLQMNSLKPEDTAVYYCAAKRVHGATGYWGQGTQVTVSS	high polyreactivity
QVQLVESGGGLVQAGGSLRLSCAASGRTLAENAMGWYRQAPGKERELVAAISSIGGRTYYADSVKGRFTISRDNAKNTVYLQMNSLKPEDTAVYYCAATLRTKSARYNYWGQGTQVTVSS	high polyreactivity
QVHLVESGGGLVQAGGSLRLSCAASGFIFYPYAMGWYRQAPGKERELVAAITSSGGSTYYADSVKGRFTISRDNAKNTVYLQMNSLKPEDTAVYYCAAYTSYYGTIIAYRYYYWGQGTQVTVSS	high polyreactivity
QVQLVESGGGLVQAVGSLRLSCAASGSTFLLNAMGWYRQAPGKEREFVAAITGNAGSTYYADSVKGRFTISRDNAKNTVYLQMNSLKPEDTAVYYCAAALPGYDGDYWGQGTQVTVSS	low polyreactivity
QVQLVESGGGLVQAGGSLRLSCAASGSIFDDYAMGWYRPAPGKEREVVAAISSGGSTYYADSVKGRFTISRDNAKNTVYLQMNSLKPEDTAVYYCNALYPQVGFGYWGQGTQVTVSS	low polyreactivity
QVQLVESGGGLVQAGGSLRLSCAASGRTFSAYVMGWYRQAPGKEREFVATIRRTGSTYYADSVKGRFTISRDNAKNTVYLQMNSLKPEDTAVYYCNRGSFPSVQGSYPGYGYWGQGTQVTVSS	high polyreactivity
QVQLVESGGGLVQAGGSLRLSCAASGRIFRRYAMGWYRQAPGKEREFVAAISTSGGSTYYADSVKGRFTISRDNAKNTVYLQMNSLKPEDTAVYYCAKRFIYGRYNYWGQGTQVTVSS	high polyreactivity
QVQLVESGGGLVQAGGSLRLSCAASGSIFSVYAMGWYSQAPGKEREVVAASTSSGGSTYYADSVKGRFTISRDNAKNTVHFQMNSLKPEDTAVYYCAADKYVRRLSWYRYGYWGQGTQVTVSS	high polyreactivity
QVQLVESGGGLVQAGCSLRLSCAASGLIFSKNVMGWYRQAPGKERELVAAISQRGGSTYYADSVKGRFTISRDNAKNTVYLQMNSLKPEDTAVYYCAADNSVSHEDYWGQGTQVTVSS	high polyreactivity
QVQLVESGGGLVQAGGSLRLSCAASGIIFVAYAMGWYRPAPGKERELVAAITKSGVRTYYADSVKGRFTISRGNAKNTVYLQMNSLKPEDTAVYYCAADRGVGVYYWGQGTQATVSS	high polyreactivity
QVQLVESGGGLVQAGGSLRLSCAASGRIFSNNAMGWYRQAPGKERELVAAITNSGGSTYYADSVKGRFTISRDNAKNTVYLQMNSLKPEDTAVYYCAADHLSVPYDVYWTYSYWGQGTQVTVSS	low polyreactivity
QVQLVESGGGLVQAGGSLRLSCAASGSIFEGYVMGWYRQEPGKERELVATISFSGGSTYYADSVKGRFTISRDNAKTTVYLQMNSLKPEDTAVYYCNALVYHTKGDYGYWGQGTQVTVSS	low polyreactivity
QVQLVESGGGLVQAGGSLRLSCAASGSIFYQYAMGWYRQAPGKERELVARITWSSGSTYYADSVKGRFTISRDNAKNTVYLQMNSLKPEDTAVYYCNVVYTGTSYIYYYWGQGTQVTVSS	high polyreactivity
QVQLVESGGGLVHAGGSLRLSCAASGKIFGLYAMGWYRKAPGKERELVAAISYRTDSTYADSVKGRFTISRDNAKNTVYLQMNSLKPEDTAVYYCAADLRVSVRYYYWGQGTQVTVSS	low polyreactivity
QVQLVESGGGLVQAGGSLRLSCAASGFTIWDYAMGWYRQAPGKERELVAAISRRGGTTYYADSVKGRFTISRDNAKNTVYLQMNSLKPEETAVYYCATYSYTWLNYYWGQGTQVTVSS	high polyreactivity
QVQLVETGGLLVQAGGSLRLTCAGSGLIFYYYAMGCYRQAPGKERELVATISWYGGSTYADSVKGRFTISRDNAKNTVYLQMNSLKPEDPAVYYCAARYFVYYLEVDYWGQGTQVTVSS	low polyreactivity
